Data on 36 molecules can be found in patent US20250215104A1 (WALDEN BIOSCIENCES, published 2025).

Positions count from the first letter of the chain named.

The chains are these.
B1: suPAR_DB03_B03 (scFv, V domains shown)
VH: QVQLVQSGAEVKKPGASVKVSCKASGYTFTNYYMHWVRQAPGQGLEWMGWIDPENGSTIYDQKFQGRVTMTRDTSTSTVYMELSSLRSEDTAVYYCARGYDVDWFVYWGQGTLVTVSS
VL: DIQMTQSPSSLSASVGDRVTITCSARSSVSYMYWYQQKPGKAPKLLIYRTSNLASGVPSRFSGSGSGTDFTLTISSLQPEDFATYYCQQYHSYPPTFGGGTKVEIK
notes: screened as scFv
B2: suPAR_DB02_H07 (scFv, V domains shown)
VH: B1 VH with N31S, M34V, I51V, E54S, N55S, S57A, I59D, D61A
VL: B1 VL
notes: screened as scFv
B3: suPAR_DB03_C08 (scFv, V domains shown)
VH: B1 VH with Y27G, P53H, D61A
VL: B1 VL with N52S
notes: screened as scFv
B4: suPAR_DB03_D01 (scFv, V domains shown)
VH: QVQLVQSGAEVKKPGASVKVSCKASGFNIKDYYIHWVRQAPGQGLEWMGWMDPNSGGTNYAQKFQGRVTMTRDTSTSTVYMELSSLRSEDTAVYYCARGYDVDWFVYWGQGTLVTVSS
VL: B1 VL
notes: screened as scFv
B5: suPAR_DB03_B04 (scFv, V domains shown)
VH: B1 VH with N31G, M48I, D52T, E54D, N55S, S57G, I59V, D61A
VL: B1 VL with R26S, V29I
notes: screened as scFv
B6: suPAR_DB03_C04 (scFv, V domains shown)
VH: B4 VH with M51I, N54E, S55N, G57S, N59I, A61D
VL: B1 VL with R26S, V29I, N52S
notes: screened as scFv
B7: suPAR_DB03_C10 (scFv, V domains shown)
VH: B1 VH with N31S, P53H, N55G, D61A, R98S
VL: B1 VL
notes: screened as scFv
B8: suPAR_DB02_H09 (scFv, V domains shown)
VH: B1 VH with N31S, S57N, D61A, Y107F
VL: B1 VL with R49A, A54Q
notes: screened as scFv
B9: suPAR_DB02_H08 (scFv, V domains shown)
VH: B1 VH with N31G, M34I
VL: B1 VL
notes: screened as scFv
B10: suPAR_DB03_A06 (scFv, V domains shown)
VH: B4 VH with K30T, M51I, N54E, S55N, G57S, N59I
VL: B1 VL with S27Q, V29I
notes: screened as scFv
B11: suPAR_DB03_D05 (scFv, V domains shown)
VH: B1 VH with Y27D, T28N, N31T, S57N, D61A
VL: B1 VL
notes: screened as scFv
B12: suPAR_DB02_H06 (scFv, V domains shown)
VH: B4 VH with M51I, N54E, S55G, G57N, N59I
VL: B1 VL with S24R
notes: screened as scFv
B13: suPAR_DB03_B05 (scFv, V domains shown)
VH: B1 VH with N31S, S57N, V102I
VL: B1 VL with S27Q
notes: screened as scFv
B14: suPAR_DB03_A03 (scFv, V domains shown)
VH: B1 VH with N31G, P53H, R98V
VL: B1 VL
notes: screened as scFv
B15: suPAR_DB03_A10 (scFv, V domains shown)
VH: B1 VH with T30S, P53H, D61A
VL: B1 VL
notes: screened as scFv
B16: suPAR_DB03_C07 (scFv, V domains shown)
VH: B1 VH with M34V, P53H
VL: B1 VL
notes: screened as scFv
B17: suPAR_DB03_B01 (scFv, V domains shown)
VH: B1 VH with Y27N, N31G, Y32H, H35Q, P53H, S57N, I59S, D61A
VL: B1 VL
notes: screened as scFv
B18: suPAR_DB03_C09 (scFv, V domains shown)
VH: B1 VH with N31S, P53H
VL: B1 VL with S27Q
notes: screened as scFv
B19: suPAR_DB03_D03 (scFv, V domains shown)
VH: B1 VH with N31G, M34I, S57N, D61A
VL: B1 VL with S24R, S27Q
notes: screened as scFv
B20: suPAR_DB03_A09 (scFv, V domains shown)
VH: B1 VH with N31S, Y32H, M34V, P53H, E54S
VL: B1 VL with S27Q, V29I
notes: screened as scFv
B21: suPAR_DB03_A08 (scFv, V domains shown)
VH: B1 VH with N31G, P53H, D61A
VL: B1 VL with R26S
notes: screened as scFv
B22: suPAR_DB03_A11 (scFv, V domains shown)
VH: B4 VH with F27Y, N28T, I29F, K30T, D31S, I34M, M48V, N59S
VL: B1 VL
notes: screened as scFv
B23: suPAR_DB03_C03 (scFv, V domains shown)
VH: B1 VH with N31G, P53H, I59S, R98S
VL: B1 VL with R49G, T50A, A54Q
notes: screened as scFv
B24: suPAR_DB03_B10 (scFv, V domains shown)
VH: B1 VH with N31G, P53H, S57N, Y100T
VL: B1 VL with R26S, V29I
notes: screened as scFv
B25: suPAR_DB03_B09 (scFv, V domains shown)
VH: B1 VH with T28N, F29I, T30K, N31S, M34I, N55G
VL: B1 VL
notes: screened as scFv
B26: suPAR_DB03_C01 (scFv, V domains shown)
VH: B1 VH with Y27S, F29S, N31D, Y32H, M34V, P53H, N55G, D61A
VL: B1 VL
notes: screened as scFv
B27: suPAR_DB03_D02 (scFv, V domains shown)
VH: B1 VH with N31R, M34L, S57N, D61A
VL: B1 VL
notes: screened as scFv
B28: suPAR_DB03_C02 (scFv, V domains shown)
VH: B1 VH with T28S, M34I, P53H, S57N, Y100N
VL: B1 VL
notes: screened as scFv
B29: suPAR_DB03_A05 (scFv, V domains shown)
VH: B1 VH with T30S, N31S, P53H, S57N, D61A
VL: B1 VL with N52S
notes: screened as scFv
B30: suPAR_DB03_B08 (scFv, V domains shown)
VH: B1 VH with T28A, N31G, P53H, S57N
VL: B1 VL with S24R, S27Q
notes: screened as scFv
B31: suPAR_DB03_D04 (scFv, V domains shown)
VH: B1 VH
VL: B1 VL with Y90S
notes: screened as scFv
B32: suPAR_DB03_B02 (scFv, V domains shown)
VH: B1 VH with Y27D, N31S, P53H, I59S
VL: B1 VL
notes: screened as scFv
B33: suPAR_DB03_B06 (scFv, V domains shown)
VH: B1 VH with T28N, F29I, N31D, M34I
VL: B1 VL
notes: screened as scFv
B34: suPAR_DB03_C06 (scFv, V domains shown)
VH: B1 VH with N31D, M34V, P53H, N55G, I59S
VL: B1 VL with R26S
notes: screened as scFv
B35: suPAR_DB03_C12 (scFv, V domains shown)
VH: B1 VH with Y27N, P53H, S57N, I59S
VL: B1 VL
notes: screened as scFv
B36: suPAR_DB02_H10 (scFv, V domains shown)
VH: B1 VH with N31S, P53H, E54S, S57N
VL: B1 VL with S27Q
notes: screened as scFv

T2 sequence (Q03405 23-303 limits assumed): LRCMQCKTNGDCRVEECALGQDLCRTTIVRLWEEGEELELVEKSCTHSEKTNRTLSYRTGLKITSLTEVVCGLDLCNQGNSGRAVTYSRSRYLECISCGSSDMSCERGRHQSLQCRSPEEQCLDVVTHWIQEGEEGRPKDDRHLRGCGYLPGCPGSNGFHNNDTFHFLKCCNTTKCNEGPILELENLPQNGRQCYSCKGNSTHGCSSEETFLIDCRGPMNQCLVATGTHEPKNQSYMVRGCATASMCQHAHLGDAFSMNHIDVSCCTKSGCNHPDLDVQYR

The target of the first experiment is T1, cynomolgus suPAR (cynomolgus, UniProt Q9GK78 23-303, limits assumed).
T1 construct: Target antigen of the off-rate screen; also called cynomolgus uPAR; cynoPLAUR-His
T1 sequence (Q9GK78 23-303 limits assumed): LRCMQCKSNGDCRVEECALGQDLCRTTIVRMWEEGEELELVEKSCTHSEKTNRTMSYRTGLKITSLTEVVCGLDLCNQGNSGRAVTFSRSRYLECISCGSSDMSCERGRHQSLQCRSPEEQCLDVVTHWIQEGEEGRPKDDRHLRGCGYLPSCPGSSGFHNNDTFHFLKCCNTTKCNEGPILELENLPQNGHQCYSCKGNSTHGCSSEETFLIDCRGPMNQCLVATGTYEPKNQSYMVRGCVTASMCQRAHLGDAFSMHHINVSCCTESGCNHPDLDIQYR
Briefly: BLI (Octet) off-rate screen of scFv clones. On the technique in general: In BLI a coated tip is dipped into the sample, and binding shifts an interference pattern.
For orientation: koff means a measure of how fast the partners let go of each other. Lower therefore signals slow dissociation. Take B1: the koff amounted to 0.00026 s⁻¹.
On the same count and under the same terms, next, B2: 0.00146 s⁻¹; B3: 9.98e-05 s⁻¹.
Same read-out and setting: next, B4: 8.49e-05 s⁻¹; B5: 4.52e-07 s⁻¹; B6: 4.37e-07 s⁻¹.
The same measure, in the same setting: for B7 the value was 0.000301 s⁻¹.
For B8, the koff came out at 0.00218 s⁻¹.
The same measure, in the same setting: for B9 the value was 0.000228 s⁻¹.
Still for that read-out and setting: next, B10: 6.32e-07 s⁻¹.
Still for that read-out and setting: for B11 the value was 3.55e-05 s⁻¹; for B12, 0.000393 s⁻¹.
Consider B13, for which the koff stood at 0.000126 s⁻¹.
The same measure, in the same setting: next, B14: 0.000319 s⁻¹; B15: 0.000685 s⁻¹.
Still for that read-out and setting: for B16 the value was 5.78e-05 s⁻¹; for B17, 0.000343 s⁻¹; for B18, 3.75e-07 s⁻¹.
The same measure, in the same setting: next, B19: 0.000156 s⁻¹; B20: 0.000254 s⁻¹; B21: 0.000269 s⁻¹.
B22: the koff was found to be 7.99e-05 s⁻¹. This koff is about 3.4-fold lower than that of the molecule before.
The same measure, in the same setting: next, B23: 0.00108 s⁻¹; B24: 0.000138 s⁻¹; B25: 0.000126 s⁻¹.
For the molecule B26, the koff worked out at 0.000165 s⁻¹. This koff and that of the molecule before are within 1.5-fold of each other.
On to B27, for which the koff amounted to 0.000241 s⁻¹. This koff and that of the molecule before are within 1.5-fold of each other.
B28 showed a koff of 0.000366 s⁻¹.
For the molecule B29, the koff turned out to be 0.000259 s⁻¹.
The same measure, in the same setting: next, B30: 0.000226 s⁻¹; B31: 0.0059 s⁻¹.
The same measure, in the same setting: for B32 the value was 0.000148 s⁻¹; for B33, 1.08e-05 s⁻¹; for B34, 0.000189 s⁻¹.
Same read-out and setting: for B35 the value was 7.59e-05 s⁻¹; for B36, 0.000189 s⁻¹.

The next experiment concerns the target T2, human soluble urokinase plasminogen activator receptor (hsuPAR) (human, UniProt Q03405 23-303, limits assumed).
T2 construct: Target antigen of the off-rate screen; also called human suPAR; rhuPAR-His
Briefly: BLI (Octet) off-rate screen of scFv clones.
For B1, the koff was 0.00347 s⁻¹.
Turning to B2, the koff stood at 0.00317 s⁻¹. The koff values of the last two molecules are within 1.5-fold of each other.
Same read-out and setting: for B3 the value was 0.00103 s⁻¹; for B4, 0.00416 s⁻¹.
The same measure, in the same setting: for B5 the value was 0.00197 s⁻¹; for B6, 0.00301 s⁻¹.
Same read-out and setting: for B7 the value was 0.00452 s⁻¹; for B8, 0.0338 s⁻¹; for B9, 0.00485 s⁻¹.
The molecule B10 showed a koff of 0.00302 s⁻¹.
Same read-out and setting: for B11 the value was 0.00482 s⁻¹; for B12, 0.00305 s⁻¹.
On the same count and under the same terms, for B13 the value was 0.00536 s⁻¹.
On the same count and under the same terms, for B14 the value was 0.00199 s⁻¹; for B15, 0.000838 s⁻¹; for B16, 0.00166 s⁻¹.
In turn, B17 displayed a koff of 0.00297 s⁻¹.
On the same count and under the same terms, next, B18: 0.00103 s⁻¹; B19: 0.00258 s⁻¹; B20: 0.00132 s⁻¹.
The same measure, in the same setting: for B21 the value was 0.000306 s⁻¹; for B22, 0.00181 s⁻¹.
Molecule B23 yielded a koff of 0.00464 s⁻¹.
The same measure, in the same setting: for B24 the value was 0.004 s⁻¹; for B25, 0.00421 s⁻¹.
Still for that read-out and setting: next, B26: 0.00366 s⁻¹; B27: 0.00755 s⁻¹; B28: 0.00534 s⁻¹.
Still for that read-out and setting: for B29 the value was 0.0026 s⁻¹.
Regarding B30, the koff amounted to 0.00133 s⁻¹.
Still for that read-out and setting: next, B31: 0.00325 s⁻¹; B32: 0.0024 s⁻¹.
Still for that read-out and setting: next, B33: 0.00352 s⁻¹.
In turn, B34 registered a koff of 0.00318 s⁻¹.
B35 registered a koff of 0.00396 s⁻¹.
For B36, the koff was 0.00344 s⁻¹.
